Values of other authors, collected in patent US20220273793A1, “HORSE IL-31 INDUCED PRURITUS MODEL” (priority 2021, published 2022).

Experiments:
[1] = tested on: beagle dogs; settings: 1.5 μg/kg intravenous challenge dose; cited from earlier work
[2] = target: T1, IL-31 (Canis lupus familiaris, UniProt A0A8I3S3D1); settings: dogs with atopic dermatitis; cited from earlier work
T1 construct: host or cells: endogenous IL-31 of client dogs with atopic dermatitis
T1 sequence (A0A8I3S3D1 24-159): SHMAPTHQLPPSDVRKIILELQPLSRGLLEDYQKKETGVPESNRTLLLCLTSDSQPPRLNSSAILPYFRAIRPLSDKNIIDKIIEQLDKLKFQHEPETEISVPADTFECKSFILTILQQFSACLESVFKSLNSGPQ

B1: recombinant canine IL-31: recombinant canine IL-31 used as intravenous challenge in beagle dogs (protein)
chain: T1 sequence (A0A8I3S3D1 24-159)
[1]
  pruritus duration: < 24 h

B2: Cytopoint: canine anti-IL-31 monoclonal antibody (mAb) produced by Zoetis Inc. (antibody, chains of the INN, looked up, V domains shown)
VH: EVQLVESGGDLVKPGGSLRLSCVASGFTFSNYGMSWVRQAPGKGLQWVATISYGGSYTYYPDNIKGRFTISRDNAKNTLYLQMNSLRAEDTAMYYCVRGYGYDTMDYWGQGTLVTVSS
VL: EIVMTQSPASLSLSQEEKVTITCKASQSVSFAGTGLMHWYQQKPGQAPKLLIYRASNLEAGVPSRFSGSGSGTDFSFTISSLEPEDVAVYYCQQSREYPWTFGQGTKLEIK
[2]
  effect on pruritus and skin lesions: reduce pruritus and skin lesions
